According to patent US20230391826A1 (SANFORD BURNHAM PREBYS MEDICAL DISCOVERY INSTITUTE, published 2023):
Where two headings read alike, the source gives them in different places. Where no end group is shown, it is not given here.

Assays:
[1] = target: T1, EphA2 ligand binding domain (EphA2 LBD), residues 28-200 (UniProt P29317 28-200); assay: ITC, soluble EphA2 LBD and peptide
T1 construct: range 28-200; Expressed in E. coli; also called soluble EphA2 LBD; soluble monomeric EphA2 LBD
Experimental: (§1) For ITC, all peptides are dissolved in DMSO and both the EphA2 LBD and the peptides are diluted to obtain a final buffer containing 9.5 mM HEPES, pH 7.9, 95 mM NaCl, and 5% DMSO. The experiments are carried out at 296 K (23° C.) using an ITC200 calorimeter (Microcal). Two-microliter aliquots of a peptide solution are injected into the cell containing 205 μL EphA2 LBD. 200-400 μM peptides are titrated into 20-40 μM EphA2 LBD. Experimental data are analyzed using the Origin software package (Microcal). The integrated values for the reaction heats are normalized to the amount of injected peptide after blank subtraction.

[2] = target: T1, EphA2 ligand binding domain (EphA2 …); assay: ITC, soluble EphA2 LBD and peptide; remark: listed apart in the source
Experimental: as §1

[3] = target: T2, EphA2 endogenously expressed on PC3 prostate cancer cells (UniProt P29317 24-976, limits assumed); assay: cell-based or functional assay
T2 sequence (P29317 24-976 limits assumed): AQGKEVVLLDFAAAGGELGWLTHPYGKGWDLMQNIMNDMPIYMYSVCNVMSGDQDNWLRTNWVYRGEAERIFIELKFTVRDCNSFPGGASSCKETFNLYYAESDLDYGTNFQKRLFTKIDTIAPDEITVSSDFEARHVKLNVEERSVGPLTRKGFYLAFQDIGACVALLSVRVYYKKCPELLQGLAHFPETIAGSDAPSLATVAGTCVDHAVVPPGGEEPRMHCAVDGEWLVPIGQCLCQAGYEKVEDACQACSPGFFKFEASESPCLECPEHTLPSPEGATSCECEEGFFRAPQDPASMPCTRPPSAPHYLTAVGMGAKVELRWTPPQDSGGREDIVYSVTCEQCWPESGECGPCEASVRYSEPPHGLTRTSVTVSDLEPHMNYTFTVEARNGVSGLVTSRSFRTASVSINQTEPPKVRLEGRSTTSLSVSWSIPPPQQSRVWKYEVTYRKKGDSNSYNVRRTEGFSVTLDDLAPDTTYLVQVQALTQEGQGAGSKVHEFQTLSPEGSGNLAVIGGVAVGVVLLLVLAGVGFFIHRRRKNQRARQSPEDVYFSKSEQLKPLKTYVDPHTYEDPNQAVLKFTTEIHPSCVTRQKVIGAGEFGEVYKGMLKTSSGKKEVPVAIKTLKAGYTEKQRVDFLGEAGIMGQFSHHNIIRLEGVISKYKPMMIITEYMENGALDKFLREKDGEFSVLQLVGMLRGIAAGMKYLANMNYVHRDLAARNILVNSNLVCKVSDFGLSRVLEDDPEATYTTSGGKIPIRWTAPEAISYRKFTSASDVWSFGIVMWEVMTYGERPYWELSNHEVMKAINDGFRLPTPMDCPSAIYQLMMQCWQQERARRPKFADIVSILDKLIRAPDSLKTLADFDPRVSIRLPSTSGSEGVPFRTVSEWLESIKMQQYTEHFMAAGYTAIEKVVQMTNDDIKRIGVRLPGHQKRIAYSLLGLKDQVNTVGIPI

[4] = target: T3, EphA2 extracellular domain fused to the Fc portion of an antibody (EphA2-Fc); assay: ELISA, inhibition of ephrinA5-AP binding to immobilized EphA2-Fc
T3 construct: extracellular domain; Immobilized on the ELISA wells; also called immobilized EphA2
T3 sequence (P29317 whole entry, the tested form may be a part): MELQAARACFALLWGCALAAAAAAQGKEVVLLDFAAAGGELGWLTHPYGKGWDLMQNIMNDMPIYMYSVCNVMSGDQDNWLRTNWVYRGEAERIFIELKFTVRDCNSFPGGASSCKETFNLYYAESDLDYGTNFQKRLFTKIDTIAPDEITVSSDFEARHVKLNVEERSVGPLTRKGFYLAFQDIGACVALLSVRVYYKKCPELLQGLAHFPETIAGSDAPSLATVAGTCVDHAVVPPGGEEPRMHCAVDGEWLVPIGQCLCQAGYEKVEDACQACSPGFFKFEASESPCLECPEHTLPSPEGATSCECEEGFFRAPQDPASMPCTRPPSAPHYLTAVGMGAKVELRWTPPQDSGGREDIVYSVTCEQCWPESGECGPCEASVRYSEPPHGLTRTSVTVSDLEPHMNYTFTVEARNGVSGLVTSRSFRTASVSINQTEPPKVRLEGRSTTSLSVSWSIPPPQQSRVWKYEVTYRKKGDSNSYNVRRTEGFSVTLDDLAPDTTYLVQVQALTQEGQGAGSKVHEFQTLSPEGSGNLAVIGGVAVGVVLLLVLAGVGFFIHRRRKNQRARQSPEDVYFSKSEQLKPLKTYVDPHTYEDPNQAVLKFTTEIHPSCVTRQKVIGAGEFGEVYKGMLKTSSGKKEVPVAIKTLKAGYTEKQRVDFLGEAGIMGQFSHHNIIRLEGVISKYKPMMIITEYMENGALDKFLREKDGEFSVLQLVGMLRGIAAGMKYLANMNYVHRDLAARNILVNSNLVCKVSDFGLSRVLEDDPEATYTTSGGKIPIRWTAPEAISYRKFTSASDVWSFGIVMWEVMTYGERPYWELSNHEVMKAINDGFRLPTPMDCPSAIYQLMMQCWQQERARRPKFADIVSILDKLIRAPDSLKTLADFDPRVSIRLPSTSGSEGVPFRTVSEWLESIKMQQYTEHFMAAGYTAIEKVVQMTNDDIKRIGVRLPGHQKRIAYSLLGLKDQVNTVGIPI

[5] = target: T3, EphA2 extracellular domain fused to the …; assay: as above; remark: listed apart in the source
[6] = target: T3, EphA2 extracellular domain fused to the …; assay: ELISA, inhibition of ephrinA5-AP binding to immobilized EphA2-Fc; representative experiment, triplicates
[7] = target: T1, EphA2 ligand binding domain (EphA2 …); assay: ITC, EphA2 LBD (200-250 µM) titrated into 10-12.5 µM peptide; single titration shown
[8] = target: T2, EphA2 endogenously expressed on PC3 …; assay: cell-based or functional assay; remark: listed apart in the source
[9] = target: T1, EphA2 ligand binding domain (EphA2 …); assay: ITC, soluble EphA2 LBD and peptide; remark: listed apart in the source

T1 sequence (P29317 other isoform, or with tags, fused parts or gaps limits assumed, form in doubt): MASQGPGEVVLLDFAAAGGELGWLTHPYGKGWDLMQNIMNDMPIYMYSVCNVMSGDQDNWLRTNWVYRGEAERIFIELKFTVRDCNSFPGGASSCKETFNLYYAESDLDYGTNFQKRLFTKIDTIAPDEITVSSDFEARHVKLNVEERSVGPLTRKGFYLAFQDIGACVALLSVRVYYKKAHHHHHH

-TΔS [1]: 21.9 kcal/mol
Kd [1]: 21 nM
N (binding stoichiometry) [1]: 2.2
ΔG [1]: -10.4 kcal/mol
ΔH [1]: -32.3 kcal/mol
Kd [2]: 21 nM
N (binding stoichiometry) [2]: 2.2
EC50 pAKT inhib [3]: 90 pM
Etop pAKT inhib [3]: 1
Etop pY588 [3]: 0.87 normalized to ephrinA1-Fc
βlig (bias factor) [3]: 0.66
IC50 [4]: 0.66 nM
IC50 [5]: 0.65 nM
IC50 [6]: 0.79 nM
Kd [7]: 18 nM
Blig (bias factor) [8]: 0.81
EC50 PY588 [8]: 0.53 nM
Emax PY588 [8]: 0.78 normalized to ephrinA1-Fc
IC50 PAKT [8]: 0.068 nM
Kd [9]: 380 nM
N (binding stoichiometry) [9]: 2.2
B1: CGA-WLA-YRPK dimer (N-ter) (peptide)
peptide: CGAWLAYPDSVPYRPK
modifications: also: N-terminally disulfide-linked homodimer, disulfide at 1, other end not in the chain
notes: also called dimer (5); dimeric peptide (5)
